Tests used:
[1] = target: T1, human pregnancy-associated plasma protein-A (PAPP-A) (human, UniProt Q13219 82-1627); test: ELISA
T1 construct: Recombinant, from 293T cells; also called human PAPP-A; full-length PAPP-A

[2] = target: T2, PA 1-950 (fragment of human PAPP-A, residues 1-950) (human, UniProt Q13219 82-1030); test: binding of PAC5 to fragments of human PAPP-A
T2 sequence: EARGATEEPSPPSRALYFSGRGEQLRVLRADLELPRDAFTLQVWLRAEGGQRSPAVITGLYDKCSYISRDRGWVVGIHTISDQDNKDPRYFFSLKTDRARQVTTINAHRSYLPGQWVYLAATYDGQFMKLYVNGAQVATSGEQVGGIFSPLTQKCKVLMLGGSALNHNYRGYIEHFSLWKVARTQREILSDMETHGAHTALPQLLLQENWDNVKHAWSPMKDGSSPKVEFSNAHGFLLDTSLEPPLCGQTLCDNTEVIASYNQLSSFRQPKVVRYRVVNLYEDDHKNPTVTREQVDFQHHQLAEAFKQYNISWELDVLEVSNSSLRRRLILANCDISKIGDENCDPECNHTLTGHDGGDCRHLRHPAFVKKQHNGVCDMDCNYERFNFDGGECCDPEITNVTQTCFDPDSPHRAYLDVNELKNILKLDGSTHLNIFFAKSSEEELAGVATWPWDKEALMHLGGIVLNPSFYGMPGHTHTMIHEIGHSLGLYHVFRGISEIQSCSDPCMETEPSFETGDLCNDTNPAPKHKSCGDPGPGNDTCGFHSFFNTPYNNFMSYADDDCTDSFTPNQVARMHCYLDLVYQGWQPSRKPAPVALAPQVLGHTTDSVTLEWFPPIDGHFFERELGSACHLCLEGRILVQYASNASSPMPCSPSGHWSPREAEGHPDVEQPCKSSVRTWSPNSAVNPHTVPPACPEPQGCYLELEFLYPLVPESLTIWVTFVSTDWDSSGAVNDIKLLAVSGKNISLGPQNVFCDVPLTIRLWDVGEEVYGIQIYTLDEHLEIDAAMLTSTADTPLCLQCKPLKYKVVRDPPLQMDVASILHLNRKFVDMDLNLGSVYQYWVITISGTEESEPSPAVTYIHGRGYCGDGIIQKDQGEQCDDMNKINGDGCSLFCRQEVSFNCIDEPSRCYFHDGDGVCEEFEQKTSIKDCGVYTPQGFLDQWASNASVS

[3] = target: T3, PA 937-1547 (fragment of human PAPP-A, residues 937-1547) (human, UniProt Q13219 1017-1627); test: binding of PAC5 to fragments of human PAPP-A
T3 sequence: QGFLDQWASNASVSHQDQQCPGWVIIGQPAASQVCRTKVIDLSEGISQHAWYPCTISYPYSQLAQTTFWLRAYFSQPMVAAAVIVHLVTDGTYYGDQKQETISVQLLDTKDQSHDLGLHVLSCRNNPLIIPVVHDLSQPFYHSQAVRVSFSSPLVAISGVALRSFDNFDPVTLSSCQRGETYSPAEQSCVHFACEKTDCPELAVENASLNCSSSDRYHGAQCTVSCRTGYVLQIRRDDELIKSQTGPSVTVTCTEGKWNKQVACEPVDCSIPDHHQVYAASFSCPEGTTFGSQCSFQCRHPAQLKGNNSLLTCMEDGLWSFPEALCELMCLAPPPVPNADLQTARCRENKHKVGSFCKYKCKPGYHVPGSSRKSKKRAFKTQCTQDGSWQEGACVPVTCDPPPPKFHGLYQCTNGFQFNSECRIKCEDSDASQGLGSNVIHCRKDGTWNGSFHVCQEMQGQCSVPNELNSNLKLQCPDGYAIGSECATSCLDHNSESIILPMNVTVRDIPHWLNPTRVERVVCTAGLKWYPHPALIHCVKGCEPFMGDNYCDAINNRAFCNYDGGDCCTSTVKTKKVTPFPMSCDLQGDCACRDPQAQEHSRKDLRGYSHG

[4] = target: T4, PA 1-599 (fragment of human PAPP-A, residues 1-599) (human, UniProt Q13219 82-679); test: binding of PAC5 to fragments of human PAPP-A
T4 sequence: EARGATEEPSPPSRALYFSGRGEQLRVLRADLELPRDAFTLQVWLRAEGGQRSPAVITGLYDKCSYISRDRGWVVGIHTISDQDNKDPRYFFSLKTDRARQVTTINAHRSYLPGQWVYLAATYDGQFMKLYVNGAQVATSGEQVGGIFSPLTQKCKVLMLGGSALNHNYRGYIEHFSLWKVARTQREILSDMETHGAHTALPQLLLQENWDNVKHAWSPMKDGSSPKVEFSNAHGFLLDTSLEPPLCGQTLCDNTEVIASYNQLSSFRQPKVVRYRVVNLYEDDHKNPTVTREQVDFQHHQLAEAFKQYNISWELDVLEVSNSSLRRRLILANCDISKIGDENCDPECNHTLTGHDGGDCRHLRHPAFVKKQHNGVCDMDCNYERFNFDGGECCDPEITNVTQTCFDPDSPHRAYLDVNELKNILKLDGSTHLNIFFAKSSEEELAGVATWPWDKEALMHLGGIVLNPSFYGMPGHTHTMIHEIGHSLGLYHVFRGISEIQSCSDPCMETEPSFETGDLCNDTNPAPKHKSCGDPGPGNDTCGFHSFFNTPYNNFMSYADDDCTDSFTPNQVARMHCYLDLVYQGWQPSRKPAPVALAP

human PAPP-A(D1484A) = human PAPP-A(D1484A) (human, UniProt Q13219 82-1627); test: ELISA, PAPP-A mutant captured with polyclonal PAPP-A antibodies
Experimental: (§1) A, PAC1 binding to human PAPP-A/PAPP-A2 chimeras or truncated human PAPP-A variants analyzed by ELISA. Sequence derived from PAPP-A is shown by open bars, and absence of binding (−) or binding (+) is indicated. […] Samples with or without EDTA (10 mM) were injected (120 s) followed by dissociation (180 s) (solid lines). […] The absence of binding (−) or binding (+) is indicated. PAC5, which was used as a positive control, binds to an epitope of PAPP-A located N-terminal to CCP1.
(§2) Determination of antibody specificity and mapping of antibody binding—Mapping of antibody binding was carried out by ELISA using PAPP-A/PAPP-A2 chimeric proteins, and mutated variants of PAPP-A. The proteins were immobilized with polyclonal PAPP-A antibodies, and binding of phage antibodies were analyzed as detailed above.

human PAPP-A(D1499A) = human PAPP-A(D1499A) (human, UniProt Q13219 82-1627); test: as above
Experimental: as §1, §2

human PAPP-A(D1502A) = human PAPP-A(D1502A) (human, UniProt Q13219 82-1627); test: as above
Experimental: as §1, §2

binding result [1]: binds
binding result [2]: binds
binding result [3]: no binding
binding result [4]: no binding
binding result (human PAPP-A(D1484A)): binds
binding result (human PAPP-A(D1499A)): binds
binding result (human PAPP-A(D1502A)): binds
B1: PAC5 (PAPP-A non-exosite antibody, scFv) (scFv)
scFv: EVQLLESGGGLVQPGGSLRLSCAASGFTFSSYAMSWVRQAPGKGLEWVSAISPAGVMTQYADSVKGRFTISRDNSKNTLYLQMNSLRAEDTAVYYCAKQQGGFDYWGQGTLVTVSSGGGGSGGGGSGGGGSTDIQMTQSPSSLSASVGDRVTITCRASQSISSYLNWYQQKPGKAPKLLIYRASALQSGVPSRFSGSGSGTDFTLTISSLQPEDFATYYCQQPIARPPTFGQGTKVEIKRAAAHHHHHHGAAEQKLISEEDLNGAA
notes: Obtained by screening on full-length human PAPP-A and used as a control antibody in the scFv format; also called clone PAC5
